Experimental data reported in patent US20250130242A1.
Non-standard residues stand in square brackets, D forms with d. No end group written: not given here. pGlu = O=C1CC[C@@H](C(=O)O)N1

Key:
S24201 antibody [1] = experiment: competitive ELISA; coated C1A2-01-BSA (printed C1A1-02-BSA), S24201 125 ng/mL, competitive peptide 8 ng/ml
S24201 antibody [2] = experiment: competitive ELISA; coated C1A2-01-BSA (printed C1A1-02-BSA), S24201 125 ng/mL, competitive peptide 40 ng/ml
S24201 antibody [3] = experiment: competitive ELISA; coated C1A2-01-BSA (printed C1A1-02-BSA), S24201 125 ng/mL, competitive peptide 1.6 ng/ml
S24201 antibody [4] = experiment: competitive ELISA; coated C1A2-01-BSA (printed C1A1-02-BSA), S24201 125 ng/mL, competitive peptide 200 ng/ml
S24201 antibody [5] = experiment: competitive ELISA; coated C1A2-01-BSA (printed C1A1-02-BSA), S24201 125 ng/mL, competitive peptide 0.32 ng/ml
S24201 antibody [6] = experiment: competitive ELISA; coated C1A2-01-BSA (printed C1A1-02-BSA), S24201 125 ng/mL, competitive peptide 1000 ng/ml
S24201 antibody [7] = experiment: competitive ELISA; coated C1A2-01-BSA (printed C1A1-02-BSA), S24201 125 ng/mL, competitive peptide 5000 ng/ml
S24201 antibody [8] = experiment: competitive ELISA; coated C1A2-01-BSA (printed C1A1-02-BSA), S24201 125 ng/mL, competitive peptide 0 ng/ml (baseline without competitor)

B1: peptide C1A2-02 (J…) (peptide)
peptide: [pGlu]SLQEETVRK
S24201 antibody [1]
  Absorbance at wavelength 492 nm (absorbance at 492 nm): 0.668
S24201 antibody [2]
  Absorbance at wavelength 492 nm (absorbance at 492 nm): 0.541
S24201 antibody [3]
  Absorbance at wavelength 492 nm (absorbance at 492 nm): 0.735
S24201 antibody [4]
  Absorbance at wavelength 492 nm (absorbance at 492 nm): 0.306
S24201 antibody [5]
  Absorbance at wavelength 492 nm (absorbance at 492 nm): 0.712
S24201 antibody [6]
  Absorbance at wavelength 492 nm (absorbance at 492 nm): 0.142
S24201 antibody [7]
  Absorbance at wavelength 492 nm (absorbance at 492 nm): 0.074
S24201 antibody [8]
  Absorbance at wavelength 492 nm (absorbance at 492 nm): 0.752

B2: peptide C1A2-03 (…) (peptide)
peptide: QSLQEETVRK
S24201 antibody [1]
  Absorbance at wavelength 492 nm (absorbance at 492 nm): 0.681
S24201 antibody [2]
  Absorbance at wavelength 492 nm (absorbance at 492 nm): 0.693
S24201 antibody [3]
  Absorbance at wavelength 492 nm (absorbance at 492 nm): 0.7
S24201 antibody [4]
  Absorbance at wavelength 492 nm (absorbance at 492 nm): 0.652
S24201 antibody [5]
  Absorbance at wavelength 492 nm (absorbance at 492 nm): 0.706
S24201 antibody [6]
  Absorbance at wavelength 492 nm (absorbance at 492 nm): 0.521
S24201 antibody [7]
  Absorbance at wavelength 492 nm (absorbance at 492 nm): 0.313
S24201 antibody [8]
  Absorbance at wavelength 492 nm (absorbance at 492 nm): 0.702
